The values that follow come from paper PMC12241546, “PRELP functions via multiple interactions with intrinsically weak affinity relying on ECM anchoring and remodeling” (Scientific Reports, 2025).

To fix the notation:
B1: Recombinant human full-length PRELP (proline/arginine-rich end leucine-rich repeat protein) (natural protein, UniProt P51888 21-382, looked up)
chain: QPTRRPRPGTGPGRRPRPRPRPTPSFPQPDEPAEPTDLPPPLPPGPPSIFPDCPRECYCPPDFPSALYCDSRNLRKVPVIPPRIHYLYLQNNFITELPVESFQNATGLRWINLDNNRIRKIDQRVLEKLPGLVFLYMEKNQLEEVPSALPRNLEQLRLSQNHISRIPPGVFSKLENLLLLDLQHNRLSDGVFKPDTFHGLKNLMQLNLAHNILRKMPPRVPTAIHQLYLDSNKIETIPNGYFKSFPNLAFIRLNYNKLTDRGLPKNSFNISNLLVLHLSHNRISSVPAINNRLEHLYLNNNSIEKINGTQICPNDLVAFHDFSSDLENVPHLRYLRLDGNYLKPPIPLDLMMCFRLLQSVVI
notes: human PRELP, amino acid residues 21-382 (Uniprot numbering); source: Mimic Sf9 cells, purified from the supernatant (DDDDK-tagged Protein Purification Gel, Benzonase, SEC); not shown: FLAG, C-terminal, kept
B4: Recombinant extracellular domain of human p75NTR (low-affinity nerve growth factor receptor) (receptor, UniProt P08138 29-189, looked up)
chain: KEACPTGLYTHSGECCKACNLGEGVAQPCGANQTVCEPCLDSVTFSDVVSATEPCKPCTECVGLQSMSAPCVEADDAVCRCAYGYYQDETTGRCEACRVCEAGSGLVFSCQDKQNTVCEECPDGTYSDEANHVDPCLPCTVCEDTERQLRECTRWADAECE
notes: also called p75NTR ectodomain; source: Sf9 cells, purified from the culture supernatant (Ni-NTA, SEC)

Holding throughout (details): both partners purified
Test [1] addresses T1, Recombinant extracellular domain of human IGFI-R (insulin-like growth factor I receptor) (human, UniProt P08069 31-935).
T1 construct: extracellular domain of human IGFI-R, amino acid residues 31-935 (Uniprot); also called IGFI-R ectodomain; source: ExpiCHO cells, purified from the culture supernatant (Ni-NTA, SEC)
Description: SPR; Biacore T200; PRELP proteins immobilised on CM5 by amine coupling (about 4000 RU; chPRELP about 600 RU for IGFI-R, 2000 RU for p75NTR); IGFI-R or p75NTR injected at 30 µL/min; 10 mM HEPES pH 7.5, 150 mM NaCl, 0.05% Tween-20, 15 °C; equilibrium curve fitting.

The target in test [2] is T2, Recombinant mature TGFβ1 dimer (transforming growth factor β1) (human, UniProt P01137 279-390).
T2 construct: mature TGFβ1 cut from the human TGFβ1 pro-protein (expressed as amino acid residues 30-390, Uniprot, with C33S in the pro-region); source: ExpiCHO cells, transfected
T2 sequence (P01137 279-390): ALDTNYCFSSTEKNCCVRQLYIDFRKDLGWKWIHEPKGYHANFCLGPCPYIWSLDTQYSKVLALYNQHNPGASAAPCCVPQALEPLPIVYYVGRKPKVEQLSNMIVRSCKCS
Description: SPR; Biacore T200; PRELP proteins immobilised on CM5 by amine coupling (about 400 RU; chPRELP about 600 RU); TGFβ1 or TGFβRII injected at 30 µL/min; 10 mM HEPES pH 7.5, 150 mM NaCl, 50 mM arginine-HCl, 0.05% Tween-20, 15 °C; global fitting.

In test [3] the target is T1, Recombinant extracellular domain of …. Nature of the test: SPR; Biacore T200; PRELP proteins immobilised on CM5 by amine coupling (about 4000 RU; chPRELP about 600 RU for IGFI-R, 2000 RU for p75NTR); IGFI-R or p75NTR injected at 30 µL/min; 10 mM HEPES pH 7.5, 150 mM NaCl, 0.05% Tween-20, 15 °C; equilibrium curve fitting. This is another data set of the same source. Background: SPR reads the build-up and loss of mass on a sensor chip optically.

For test [4], the target named is B4. Described as above.
Test [5] deals with B1. The test is described as above.

T1 sequence (P08069 31-935): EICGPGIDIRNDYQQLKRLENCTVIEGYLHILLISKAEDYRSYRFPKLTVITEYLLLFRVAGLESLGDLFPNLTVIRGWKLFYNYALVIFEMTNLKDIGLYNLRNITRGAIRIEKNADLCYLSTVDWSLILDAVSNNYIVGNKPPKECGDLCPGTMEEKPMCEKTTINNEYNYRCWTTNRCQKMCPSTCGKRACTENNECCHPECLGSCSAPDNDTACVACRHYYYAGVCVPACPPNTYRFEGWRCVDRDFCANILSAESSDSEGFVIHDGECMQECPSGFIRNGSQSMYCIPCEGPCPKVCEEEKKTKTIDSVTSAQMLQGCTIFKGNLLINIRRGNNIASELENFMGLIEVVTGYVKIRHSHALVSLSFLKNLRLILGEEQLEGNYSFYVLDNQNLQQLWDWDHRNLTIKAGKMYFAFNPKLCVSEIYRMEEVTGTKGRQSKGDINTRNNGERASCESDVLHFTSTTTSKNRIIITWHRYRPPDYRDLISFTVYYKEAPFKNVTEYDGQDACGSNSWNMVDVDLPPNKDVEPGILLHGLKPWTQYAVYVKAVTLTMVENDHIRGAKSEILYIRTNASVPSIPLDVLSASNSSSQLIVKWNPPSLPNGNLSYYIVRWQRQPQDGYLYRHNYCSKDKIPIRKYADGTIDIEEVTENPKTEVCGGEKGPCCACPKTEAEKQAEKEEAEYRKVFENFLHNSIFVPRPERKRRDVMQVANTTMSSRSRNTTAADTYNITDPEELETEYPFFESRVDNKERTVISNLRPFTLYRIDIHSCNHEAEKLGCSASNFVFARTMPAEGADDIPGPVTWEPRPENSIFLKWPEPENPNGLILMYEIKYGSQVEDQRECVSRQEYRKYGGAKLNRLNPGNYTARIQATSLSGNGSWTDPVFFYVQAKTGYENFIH

One may read the Kd as a measure of binding affinity in units of concentration. On to B1, for which the dissociation constant Kd in test [1] was determined as 7.09 µM.

B2: N-terminal-truncated PRELP ΔNT50 (domain or fragment)
chain: PDCPRECYCPPDFPSALYCDSRNLRKVPVIPPRIHYLYLQNNFITELPVESFQNATGLRWINLDNNRIRKIDQRVLEKLPGLVFLYMEKNQLEEVPSALPRNLEQLRLSQNHISRIPPGVFSKLENLLLLDLQHNRLSDGVFKPDTFHGLKNLMQLNLAHNILRKMPPRVPTAIHQLYLDSNKIETIPNGYFKSFPNLAFIRLNYNKLTDRGLPKNSFNISNLLVLHLSHNRISSVPAINNRLEHLYLNNNSIEKINGTQICPNDLVAFHDFSSDLENVPHLRYLRLDGNYLKPPIPLDLMMCFRLLQSVVI
modifications: secreted from insect cells (Mimic Sf9), possible N-glycans; C-terminal FLAG tag omitted. The start at 71 is 50 residues removed from the printed mature construct 21-382, just before the Cys-rich …
A word on the koff: it is the first-order rate constant of dissociation. The term kon denotes the rate constant with which the complex forms. Regarding B2, the Kd in test [2] is 1.55 µM; in test [3], 6.97 µM; in test [4], 11.7 µM. For the same molecule, in test [2], the koff was found to be 0.169 s⁻¹. Also, in test [2], the kon worked out at 75100 M⁻¹ s⁻¹.

B3: Recombinant chimeric PRELP (human PRELP 1-268 joined to Listeria monocytogenes internalin B 189-248) (other)
chain: QPTRRPRPGTGPGRRPRPRPRPTPSFPQPDEPAEPTDLPPPLPPGPPSIFPDCPRECYCPPDFPSALYCDSRNLRKVPVIPPRIHYLYLQNNFITELPVESFQNATGLRWINLDNNRIRKIDQRVLEKLPGLVFLYMEKNQLEEVPSALPRNLEQLRLSQNHISRIPPGVFSKLENLLLLDLQHNRLSDGVFKPDTFHGLKNLMQLNLAHNILRKMPPRVPTAIHQLYLDSNKIETIPNGYFKSFPNLDTLSLEDNQISDIVPLAGLTKLQNLYLSKNHISDLRALAGLKNLDVLELFSQECLNKPIN
notes: signal peptide in the construct; human PRELP, amino acid residues 1-268 (Uniprot), N-terminal half portion with LRR1-7; also called chPRELP; source: Expi293 cells, transfected, purified from the culture supernatant (FLAG-tag purification, SEC)
Take B3: in test [2], the Kd came out at 1.21 µM, the koff was 0.362 s⁻¹ and the kon stood at 241000 M⁻¹ s⁻¹. Besides, the Kd in test [3] is 15.4 µM. The Kd in test [4] was 14.5 µM.

For the molecule B4, the Kd in test [5] was found to be 12.7 µM.

B5: N-terminal-truncated PRELP ΔNT24 (domain or fragment)
chain: SFPQPDEPAEPTDLPPPLPPGPPSIFPDCPRECYCPPDFPSALYCDSRNLRKVPVIPPRIHYLYLQNNFITELPVESFQNATGLRWINLDNNRIRKIDQRVLEKLPGLVFLYMEKNQLEEVPSALPRNLEQLRLSQNHISRIPPGVFSKLENLLLLDLQHNRLSDGVFKPDTFHGLKNLMQLNLAHNILRKMPPRVPTAIHQLYLDSNKIETIPNGYFKSFPNLAFIRLNYNKLTDRGLPKNSFNISNLLVLHLSHNRISSVPAINNRLEHLYLNNNSIEKINGTQICPNDLVAFHDFSSDLENVPHLRYLRLDGNYLKPPIPLDLMMCFRLLQSVVI
modifications: secreted from insect cells (Mimic Sf9), possible N-glycans; C-terminal FLAG tag omitted. The start at 45 is 24 residues removed from the printed mature construct 21-382, which matches removal of the …
For B5, in test [2], the Kd came to 0.512 µM, the koff stood at 0.142 s⁻¹ and the association rate constant (kon) was found to be 277000 M⁻¹ s⁻¹. The Kd in test [3] stood at 3.9 µM. Moreover, the Kd in test [4] turned out to be 11.3 µM.
